Assay results published in paper PMC12455010.

B1: rat Kv3.4 (rKv3.4): N257Q (protein)
parent chain: MISSVCVSSYRGRKSGNKPPSKTCLKEEMAKGEASEKIIINVGGTRHETYRSTLRTLPGTRLAWLADPDGGGRPESDGGGAGSSGSSGGGGGCEFFFDRHPGVFAYVLNYYRTGKLHCPADVCGPLFEEELTFWGIDETDVEPCCWMTYRQHRDAEEALDIFESPDGGGGGAGPGDEAGDDERELALQRLGPHEGGSGPGAGSGGCRGWQPRMWALFEDPYSSRAARVVAFASLFFILVSITTFCLETHEAFNIDRNVTEIHRVGNITSVRFRREVETEPILTYIEGVCVMWFTLEFLVRIVCCPDTLDFVKNLLNIIDFVAILPFYLEVGLSGLSSKAARDVLGFLRVVRFVRILRIFKLTRHFVGLRVLGHTLRASTNEFLLLIIFLALGVLIFATMIYYAERIGARPSDPRGNDHTDFKNIPIGFWWAVVTMTTLGYGDMYPKTWSGMLVGALCALAGVLTIAMPVPVIVNNFGMYYSLAMAKQKLPKKRKKHVPRPPQLESPIYCKSEETSPRDSTYSDTSPPAREEGMVERKRADSKQNGDANAVLSDEEGAGLTQPLASAPTPEERRALRRSGTRDRNKKAAACFLLSAGDYACADGSVQKEGSVEPKACVPVSHTCAL
B2: rat Kv3.4 (rKv3.4): N266Q (protein)
parent chain: B1 parent chain

Legend:
Details in all cases: glycan lost; control: wild type
[1] = whole-cell patch clamp in CHO
[2] = automated whole-cell patch clamp, inactivation width at +80 mV
[3] = cell surface biotinylation, western blot

| Protein | other: channel current [1] | other: channel inactivation delay and its heterogeneity [2] | localisation_or_trafficking [3] |
| --- | --- | --- | --- |
| B1 | decreases | decreases | no change |
| B2 | decreases | decreases | no change |
